Reference: US20140377253A1

Key:
[1] = biological target: FcgRIIB (UniProt P31994); test: FACS
[2] = biological target: FcgRIIIA (UniProt P08637); test: FACS
Sequence of FcgRIIIA (P08637 17-254): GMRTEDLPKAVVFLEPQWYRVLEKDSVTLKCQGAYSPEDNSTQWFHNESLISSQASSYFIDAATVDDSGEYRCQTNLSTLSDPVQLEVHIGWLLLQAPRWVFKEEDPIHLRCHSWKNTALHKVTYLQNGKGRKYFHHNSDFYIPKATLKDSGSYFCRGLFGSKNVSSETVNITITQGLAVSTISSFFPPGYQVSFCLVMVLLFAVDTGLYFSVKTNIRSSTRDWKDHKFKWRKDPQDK

Sequence of FcgRIIB (P31994 43-310): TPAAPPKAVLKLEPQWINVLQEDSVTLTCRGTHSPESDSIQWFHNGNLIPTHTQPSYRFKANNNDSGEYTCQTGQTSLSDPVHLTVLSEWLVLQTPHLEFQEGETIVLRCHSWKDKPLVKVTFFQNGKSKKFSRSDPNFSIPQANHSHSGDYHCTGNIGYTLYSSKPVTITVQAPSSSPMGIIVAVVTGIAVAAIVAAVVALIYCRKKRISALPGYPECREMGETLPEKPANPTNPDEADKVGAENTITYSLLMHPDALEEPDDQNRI

L328F
EC50 [1]: 1.85 nM | EC50 [2]: 2.51 nM

N297A
EC50 [1]: 2 nM | EC50 [2]: 3.67 nM

S267E
EC50 [1]: 0.64 nM | EC50 [2]: 1.24 nM

SELF
EC50 [1]: 0.32 nM | EC50 [2]: 2.31 nM
